From paper PMC10786891, “Massively parallel profiling of RNA-targeting CRISPR-Cas13d”
Residue numbers refer to the chain shown, from its start. Names may count otherwise.

T1: EsCas13d, nuclease-dead (Eubacterium siraeum, UniProt B0MS50, R295A;H300A;R849A;H854A)
T1 sequence: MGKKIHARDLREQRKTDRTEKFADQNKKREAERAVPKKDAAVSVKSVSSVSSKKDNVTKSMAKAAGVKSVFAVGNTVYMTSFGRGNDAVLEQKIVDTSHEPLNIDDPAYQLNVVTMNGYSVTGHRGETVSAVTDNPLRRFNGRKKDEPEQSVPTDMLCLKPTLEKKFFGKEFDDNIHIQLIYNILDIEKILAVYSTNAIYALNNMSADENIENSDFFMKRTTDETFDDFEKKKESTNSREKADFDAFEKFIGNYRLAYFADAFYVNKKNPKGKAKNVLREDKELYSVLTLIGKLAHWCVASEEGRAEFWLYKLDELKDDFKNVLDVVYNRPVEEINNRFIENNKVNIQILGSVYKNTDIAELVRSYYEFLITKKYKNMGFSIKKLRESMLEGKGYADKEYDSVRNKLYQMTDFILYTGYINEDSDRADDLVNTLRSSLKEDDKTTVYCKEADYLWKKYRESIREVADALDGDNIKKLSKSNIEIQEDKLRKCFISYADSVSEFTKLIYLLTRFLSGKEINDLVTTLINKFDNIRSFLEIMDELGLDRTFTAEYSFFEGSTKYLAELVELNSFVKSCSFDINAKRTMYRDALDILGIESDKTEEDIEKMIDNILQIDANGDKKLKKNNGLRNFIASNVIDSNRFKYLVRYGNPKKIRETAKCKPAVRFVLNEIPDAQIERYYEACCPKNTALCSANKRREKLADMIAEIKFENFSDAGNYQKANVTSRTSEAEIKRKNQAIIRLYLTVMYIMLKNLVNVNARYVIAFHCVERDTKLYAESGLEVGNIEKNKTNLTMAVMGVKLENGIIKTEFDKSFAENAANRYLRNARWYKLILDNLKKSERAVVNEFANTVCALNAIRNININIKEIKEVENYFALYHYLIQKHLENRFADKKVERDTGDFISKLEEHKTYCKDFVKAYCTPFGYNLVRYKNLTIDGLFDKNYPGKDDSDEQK

B1: target 1 A16U,G17U (mixed)
RNA 1: CACCCGUGCAAAAAUGCAGGGGUCUAAAACUGAGCGGAUAACCUCUCUAUGG
RNA 2: GGGAAUGGAUCCACAUCUACGAAUUCGUACCAUAUUGAGGUUAUCCGCUCACCGAGAUCGGAAGAGCACACGU
B2: target 1 insG 3' of 7,insA 3' of 3 (mixed)
RNA 1: B1 RNA 1
RNA 2: GGGAAUGGAUCCACAUCUACGAAUUCGUACCAUAGAGAGGUUAUCGCGCUACACCGAGAUCGGAAGAGCACACGU
B3: target 1 insC 3' of 15,insA 3' of 15 (mixed)
RNA 1: B1 RNA 1
RNA 2: GGGAAUGGAUCCACAUCUACGAAUUCGUACCAUAGAGCAAGGUUAUCCGCUCACCGAGAUCGGAAGAGCACACGU
B4: target 1 insG 3' of 20,insU 3' of 12 (mixed)
RNA 1: B1 RNA 1
RNA 2: B3 RNA 2 with U33G, A34U, G35A, A36G, G37A, C38G, A40G, G42U
B5: target 2 MT 5'PFS CAA 3'PFS AGC (mixed)
RNA 1: CACCCGUGCAAAAUUGCAGGGGUCUAAAACCUUCUCCAAAUUGUUUCAUCCU
RNA 2: GGGAAUGGAUCCACAUCUACGAAUUCCAAAGGAUGAAACAAUUUGGAGAAGAGCAGAUCGGAAGAGCACACGU
B6: target 2 MT 5'PFS ACG 3'PFS ACC (mixed)
RNA 1: B5 RNA 1
RNA 2: B5 RNA 2 with C27A, A28C, A29G, G53C
B7: target 2 MT 5'PFS UUU 3'PFS ACU (mixed)
RNA 1: B5 RNA 1
RNA 2: B5 RNA 2 with C27U, A28U, A29U, G53C, C54U
B8: target 2 MT 5'PFS CAU 3'PFS CAC (mixed)
RNA 1: B5 RNA 1
RNA 2: B5 RNA 2 with A29U, A52C, G53A
B9: target 2 MT 5'PFS CAU 3'PFS CAA (mixed)
RNA 1: B5 RNA 1
RNA 2: B5 RNA 2 with A29U, A52C, G53A, C54A
B10: target 2 MT 5'PFS AGG 3'PFS AGA (mixed)
RNA 1: B5 RNA 1
RNA 2: B5 RNA 2 with C27A, A28G, A29G, C54A
B11: target 2 MT 5'PFS AAU 3'PFS ACG (mixed)
RNA 1: B5 RNA 1
RNA 2: B5 RNA 2 with C27A, A29U, G53C, C54G
B12: target 2 MT 5'PFS UUU 3'PFS ACG (mixed)
RNA 1: B5 RNA 1
RNA 2: B5 RNA 2 with C27U, A28U, A29U, G53C, C54G
B13: target 2 MT 5'PFS AUU 3'PFS UGC (mixed)
RNA 1: B5 RNA 1
RNA 2: B5 RNA 2 with C27A, A28U, A29U, A52U
B14: target 2 MT 5'PFS ACC 3'PFS ACC (mixed)
RNA 1: B5 RNA 1
RNA 2: B5 RNA 2 with C27A, A28C, A29C, G53C
B15: target 2 MT 5'PFS ACU 3'PFS UCU (mixed)
RNA 1: B5 RNA 1
RNA 2: B5 RNA 2 with C27A, A28C, A29U, A52U, G53C, C54U
B16: target 2 MT 5'PFS GGC 3'PFS CGC (mixed)
RNA 1: B5 RNA 1
RNA 2: B5 RNA 2 with C27G, A28G, A29C, A52C
B17: target 2 MT 5'PFS GGC 3'PFS CGA (mixed)
RNA 1: B5 RNA 1
RNA 2: B5 RNA 2 with C27G, A28G, A29C, A52C, C54A
B18: target 2 MT 5'PFS GUA 3'PFS UAU (mixed)
RNA 1: B5 RNA 1
RNA 2: B5 RNA 2 with C27G, A28U, A52U, G53A, C54U
B19: target 2 MT 5'PFS AUA 3'PFS UGU (mixed)
RNA 1: B5 RNA 1
RNA 2: B5 RNA 2 with C27A, A28U, A52U, C54U
B20: target 2 MT 5'PFS ACC 3'PFS ACU (mixed)
RNA 1: B5 RNA 1
RNA 2: B5 RNA 2 with C27A, A28C, A29C, G53C, C54U
B21: target 2 MT 5'PFS UCU 3'PFS UUC (mixed)
RNA 1: B5 RNA 1
RNA 2: B5 RNA 2 with C27U, A28C, A29U, A52U, G53U
B22: target 2 MT 5'PFS CUU 3'PFS AUG (mixed)
RNA 1: B5 RNA 1
RNA 2: B5 RNA 2 with A28U, A29U, G53U, C54G
B23: target 2 MT 5'PFS GGC 3'PFS CGG (mixed)
RNA 1: B5 RNA 1
RNA 2: B5 RNA 2 with C27G, A28G, A29C, A52C, C54G
B24: target 2 MT 5'PFS ACG 3'PFS ACU (mixed)
RNA 1: B5 RNA 1
RNA 2: B5 RNA 2 with C27A, A28C, A29G, G53C, C54U
B25: target 2 MT 5'PFS ACC 3'PFS ACG (mixed)
RNA 1: B5 RNA 1
RNA 2: B5 RNA 2 with C27A, A28C, A29C, G53C, C54G
B26: target 2 MT 5'PFS UUU 3'PFS ACA (mixed)
RNA 1: B5 RNA 1
RNA 2: B5 RNA 2 with C27U, A28U, A29U, G53C, C54A
B27: target 2 MT 5'PFS ACG 3'PFS ACA (mixed)
RNA 1: B5 RNA 1
RNA 2: B5 RNA 2 with C27A, A28C, A29G, G53C, C54A
B28: target 2 MT 5'PFS AAU 3'PFS ACC (mixed)
RNA 1: B5 RNA 1
RNA 2: B5 RNA 2 with C27A, A29U, G53C
B29: target 2 MT 5'PFS UUU 3'PFS ACC (mixed)
RNA 1: B5 RNA 1
RNA 2: B5 RNA 2 with C27U, A28U, A29U, G53C
B30: target 2 MT 5'PFS AGU 3'PFS UAC (mixed)
RNA 1: B5 RNA 1
RNA 2: B5 RNA 2 with C27A, A28G, A29U, A52U, G53A
B31: target 2 MT 5'PFS UCU 3'PFS UUA (mixed)
RNA 1: B5 RNA 1
RNA 2: B5 RNA 2 with C27U, A28C, A29U, A52U, G53U, C54A
B32: target 2 MT 5'PFS GGC 3'PFS CGU (mixed)
RNA 1: B5 RNA 1
RNA 2: B5 RNA 2 with C27G, A28G, A29C, A52C, C54U
B33: target 2 MT 5'PFS UCU 3'PFS UUU (mixed)
RNA 1: B5 RNA 1
RNA 2: B5 RNA 2 with C27U, A28C, A29U, A52U, G53U, C54U
B34: target 2 MT 5'PFS AGG 3'PFS AGC (mixed)
RNA 1: B5 RNA 1
RNA 2: B5 RNA 2 with C27A, A28G, A29G
B35: target 2 MT 5'PFS ACA 3'PFS AAC (mixed)
RNA 1: B5 RNA 1
RNA 2: B5 RNA 2 with C27A, A28C, G53A
B36: target 2 MT 5'PFS ACG 3'PFS ACG (mixed)
RNA 1: B5 RNA 1
RNA 2: B5 RNA 2 with C27A, A28C, A29G, G53C, C54G
B37: target 2 MT 5'PFS UCG 3'PFS CUC (mixed)
RNA 1: B5 RNA 1
RNA 2: B5 RNA 2 with C27U, A28C, A29G, A52C, G53U
B38: target 2 MT 5'PFS UCG 3'PFS CUG (mixed)
RNA 1: B5 RNA 1
RNA 2: B5 RNA 2 with C27U, A28C, A29G, A52C, G53U, C54G

Target: T1, EsCas13d, nuclease-dead
Assay: crRNA (strand 1, pre-loaded); Mg2+; 40 mM Tris-HCl pH 7.5, 150 mM NaCl, 6 mM MgCl2, 1 mM DTT, 0.1% Tween-20, 0.2 mg/ml BSA; 25 C; 10 min per concentration, then washed
Conditions: tags: His6-TwinStrep-SUMO cleaved; N-terminal SNAP kept (SNAP-Surface 488); label: 3' end held by stalled T7 RNA polymerase

Binder | Kd
B1 | 22 ± 2.1 nM
B2 | 5.85 ± 0.29 nM
B3 | 8.8 ± 0.6 nM
B4 | 25 ± 4 nM
B5 | 7.6 ± 2.2 nM
B6 | ~20 nM
B7 | 9.1 ± 0.8 nM
B8 | 4.6 ± 0.8 nM
B9 | 5.2 ± 0.9 nM
B10 | 3.4 ± 0.4 nM
B11 | 5.5 ± 0.6 nM
B12 | 10.6 ± 2 nM
B13 | 9.7 ± 1.4 nM
B14 | 10.2 ± 3.1 nM
B15 | 8.4 ± 0.9 nM
B16 | 12.5 ± 1.1 nM
B17 | 11.4 ± 1.2 nM
B18 | 7.8 ± 0.7 nM
B19 | 13.3 ± 2 nM

Binder | Kd
B20 | 7.1 ± 3.2 nM
B21 | 18 ± 4 nM
B22 | 4.1 ± 0.4 nM
B23 | 14.1 ± 1.7 nM
B24 | 17 ± 5 nM
B25 | 4.3 ± 0.9 nM
B26 | 6.1 ± 0.7 nM
B27 | 9.7 ± 2.4 nM
B28 | 10.5 ± 1.6 nM
B29 | 14.1 ± 3.4 nM
B30 | 15.1 ± 3.3 nM
B31 | 15.6 ± 3 nM
B32 | 18 ± 2.4 nM
B33 | 10.3 ± 1 nM
B34 | 4.8 ± 0.5 nM
B35 | 4 ± 1.3 nM
B36 | 15 ± 4 nM
B37 | 23 ± 6 nM
B38 | 40 ± 9 nM
